Reference: patent publication US6207419A, “Thrombin inhibitory agents and methods of using same” (The University of North Carolina at Chapel Hill, priority 1999, dated 2001)

What was measured:
[1] = molecular target: T1, plasma purified α-thrombin (Homo sapiens, UniProt P00734); assay: Thrombin inhibition in the presence of glycosaminoglycans (heparin or dermatan sulfate); assay type: biochemical; details: heparin at optimal concentration
T1 construct: Human α-thrombin, HCII, and ATIII were purified in our laboratory from plasma; from tissue; host or cells: human plasma (purified in the authors' laboratory)
Protocol: Protease inhibition rates were determined as described previously (Rogers, S. J., Pratt, C. W., Whinna, H. C., and Church, F. C. (1992) J. Biol. Chem. 267(6), 3613-3617; Whinna, H. C., Choi, H. U., Rosenberg, L. C., and Church, F. C. (1993) J. Biol. Chem. 268, 3920-3924; Ciaccia, A. V., Cunningham, E. L., and Church, F. C. (1995) Protein Express. Purific. 6, 806-812; Ciaccia, A. V., Willemze, A. J., and Church, F. C. (1997) J. Biol. Chem. 272(2), 888-893). All assays were performed at room temperature in 96-well microtiter plates previously coated with 2 mg/mL BSA.
In the presence of glycosaminoglycans, 5 nM rHCII (wt, CHis6, CHis5 Pro, L444R, or L444R-CHis6) was incubated with 0.5 nM thrombin and 0-1 mg/mL heparin or 0-4 mg/mL dermatan sulfate or 10 nM rATIII (wt or CHis6) was incubated with 1 nM thrombin or factor Xa and 0-1 mg/mL heparin in the presence of 2 mg/mL BSA in HNPN, pH 7.4.
(§1) Residual thrombin activity was measured with 150 μM GlyProArg-NA and 1 mg/mL pB in the absence of glycosaminoglycan, 2 mg/mL pB in the presence of heparin and 4 mg/mL in the presence of dermatan sulfate. Residual factor Xa activity was measured with 500 μM Spectrozyme FXa and 2mg/mL pB in the presence or absence of glycosaminoglycan. Residual chymotrypsin activity was measured with 150 μM AlaAlaProPhe-NA and residual trypsin activity was measured with 150 μM GlyProArg-NA. Substrate cleavage was measured by color development at 405 nM on a Vmax Kinetic Microplate Reader (Molecular Devices).
Assays were performed at least in triplicate on two or more recombinant protein preparations. All inhibition studies were measured under pseudo-first order conditions where inhibitor [I] is at least ten-fold higher than enzyme (protease) [E], and second-order rate constants were calculated as described previously (Ciaccia, A. V., Cunningham, E. L., and Church, F. C. (1995) Protein Express. Purific. 6, 806-812; Ciaccia, A. V., Willemze, A. J., and Church, F. C. (1997) J. Biol. Chem. 272(2), 888-893).

[2] = Heparin-Sepharose affinity chromatography; assay type: binding; details: NaCl gradient, 20 mM Hepes pH 7.4
Protocol: 100 μL of each fraction was aliquoted onto a 96-well microtiter plate and ELISA was performed. The peak elution ionic strength was determined by plotting 405 nm color development and NaCl concentration against the fraction number. All samples were run at least in triplicate using two or more protein preparations. Recombinant ATIII samples were run similarly to the HCII samples, except the elution gradient was run from 50 mM to 2 M NaCl.

α-thrombin = molecular target: T2, α-thrombin (Homo sapiens, UniProt P00734); assay: Effect of hirugen on thrombin inhibition in the absence of glycosaminoglycan; assay type: biochemical
T2 construct: Human α-thrombin, HCII, and ATIII were purified in our laboratory from plasma; from tissue; host or cells: human plasma (purified in the authors' laboratory)
Protocol: as §1, with “GlyProArg-NA.” for “GlyProArg-NA. Substrate cleavage was measured by color development at 405 nM on a Vmax Kinetic Microplate Reader (Molecular Devices).”
Assays were performed at least in triplicate on two or more recombinant protein preparations.

thrombin = details: cited from earlier work
[3] = molecular target: T1, plasma purified α-thrombin; details: value printed with literature reference; cited from earlier work

B1: rHCII-L444R: Recombinant HCII with mutation at the reactive site residue P1 (L444R) (protein, UniProt P05546 20-499, looked up, variant L444R)
Heparin cofactor 2: GSKGPLDQLEKGGETAQSADPQWEQLNNKNLSMPLLPADFHKENTVTNDWIPEGEEDDDYLDLEKIFSEDDDYIDIVDSLSVSPTDSDVSAGNILQLFHGKSRIQRLNILNAKFAFNLYRVLKDQVNTFDNIFIAPVGISTAMGMISLGLKGETHEQVHSILHFKDFVNASSKYEITTIHNLFRKLTHRLFRRNFGYTLRSVNDLYIQKQFPILLDFKTKVREYYFAEAQIADFSDPAFISKTNNHIMKLTKGLIKDALENIDPATQMMILNCIYFKGSWVNKFPVEMTHNHNFRLNEREVVKVSMMQTKGNFLAANDQELDCDILQLEYVGGISMLIVVPHKMSGMKTLEAQLTPRVVERWQKSMTNRTREVLLPKFKLEKNYNLVESLKLMGIRMLFDKNGNMAGISDQRIAIDLFKHQGTITVNEEGTQATTVTTVGFMPRSTQVRFTVDRPFLFLIYEHRTSCLLFMGRVANPSRS
- maximal rate of thrombin inhibition in the presence of heparin [1]: 1.93±0.38×10^8 M^-1 min^-1
- Heparin-Sepharose [NaCl], peak elution concentration [2]: 350 mM
- effect of hirugen on thrombin inhibition, in words (α-thrombin; hirugen 20 μM, absence of glycosaminoglycan): less of an effect
- rate constant of inhibition (k2) in the absence of peptide (α-thrombin; no hirugen, no control peptide, FIG. 5): 31200 M⁻¹ s⁻¹
- increase of the rate of thrombin inhibition compared to wt-rHCII (thrombin; absence of glycosaminoglycan, earlier publications): ~2 orders of magnitude
- rate of thrombin inhibition in the absence of glycosaminoglycan (thrombin; value printed with literature reference): 1.3±0.30×10^6 M^-1 min^-1
- maximal rate of thrombin inhibition in the presence of dermatan sulfate [3]: 2.84±0.24×10^6 M^-1 min^-1
